Experiments:
Assay type in all cases: biochemical
[1] = Crotonase activity assayed as described by Stern
Protocol: Crotonase activity was assayed as described by Stern (Methods Enzymol. 1, 559-566, (1954)). In one typical assay, the specific activity of the crotonase protein in the induced culture was determined to be 444 μmol mg^−1 min^−1 compared to 47 μmol mg^−1 min^−1 in the uninduced culture.
(§1) For enzyme activity analysis, a single colony of each strain was streaked onto a fresh plate containing SD minimal drop out medium and incubated at 30° C. for 2 days. The cells on this plate were used to inoculate 20 mL of SD drop out medium and in a 125 mL shake flask and grown overnight at 30° C., with shaking at 250 rpm. The optical density (OD600) of the overnight culture was measured, and the culture was diluted to an OD600=0.1 in 250 mL of the same medium in a 1.0 L shake flask, and grown at 30° C. with shaking at 250 rpm to an OD600 of between 0.8 to 1.0. The cells were then harvested by centrifugation at 2000×g for 10 min, and resuspended in 20 mL of 50 mM Tris-HCl buffer, pH 8.5. Enzyme assays were performed as described above.

[2] = Trans-2-enoyl-CoA reductase (butyryl-CoA dehydrogenase) activity assayed as described by Hoffmeister et al.
Protocol: Trans-2-enoyl-CoA reductase activity was assayed as described by Hoffmeister et al. (J. Biol. Chem. 280, 4329-4338 (2005)). In one typical assay, the specific activity of the TER CAC0462 protein in the induced culture was determined to be 0.694 μmol mg^−1 min^−1 compared to 0.0128 μmol mg^−1 min^−1 in the uninduced culture.
Trans-2-enoyl-CoA reductase activity was assayed as described by Hoffmeister et al., J. Biol. Chem. 280:4329 (2005). In a typical assay, the specific activity of the EgTER(opt) protein in the induced BL21 (DE3)/pET23+::EgTER(opt) culture was determined to be 1.9 μmol mg^−1 min^−1 compared to 0.547 μmol mg^−1 min^−1 in the uninduced culture.
as §1

[3] = Acylating aldehyde dehydrogenase activity (formation of NADH, absorbance at 340 nm); details: yeast BY4741 transformants containing pNY8
Protocol: Acylating aldehyde dehydrogenase activity was determined by monitoring the formation of NADH, as measured by the increase in absorbance at 340 nm, as described by Husemann et al. (Appl. Microbiol. Biotechnol. 31:435-444 (1989)). In one typical assay, the specific activity of the Aid protein in the induced culture was determined to be 0.106 μmol mg^−1 min^−1 compared to 0.01 μmol mg^−1 min^−1 in the uninduced culture
as §1

[4] = Acetoacetyl-CoA thiolase activity in cell free extracts (decrease in absorbance at 303 nm); details: yeast strain BY4741 (pNY6), ERG10 gene, in words
Protocol: Acetoacetyl-CoA thiolase activity in the cell free extracts was measured as degradation of a Mg^2+-acetoacetyl-CoA complex by monitoring the decrease in absorbance at 303 nm. Standard assay conditions were 100 mM Tris-HCl pH 8.0, 1 mM DTT (dithiothreitol) and 10 mM MgCl2. The cocktail was equilibrated for 5 min at 37° C.; then the cell-free extract was added. The reaction was initiated with the addition of 0.05 mM acetoacetyl-CoA plus 0.2 mM CoA. Protein concentration was measured by either the Bradford method or by the Bicinchoninic Kit (Sigma, catalog no. BCA-1). Bovine serum albumin (Bio-Rad, Hercules, Calif.) was used as the standard in both cases. In one typical assay, the specific activity of the ThlA protein in the induced culture was determined to be 16.0 μmol mg^−1 min^−1 compared to 0.27 μmol mg^−1 min^−1 in the uninduced culture.
For enzyme activity analysis, a single colony of each strain was streaked onto a fresh plate containing SD minimal drop out medium and incubated at 30° C. for 2 days. […] The optical density (OD600) of the overnight culture was measured, and the culture was diluted to an OD600=0.1 in 250 mL of the same medium in a 1.0 L shake flask, and grown at 30° C. with shaking at 250 rpm to an OD600 of between 0.8 to 1.0. […]

B1: crotonase: crotonase encoded by crt from C. acetobutylicum ATCC 824, SEQ ID NO:8 (protein, listed as Clostridium acetobutylicum)
chain: MELNNVILEKEGKVAVVTINRPKALNALNSDTLKEMDYVIGEIENDSEVLAVILTGAGEKSFVAGADISEMKEMNTIEGRKFGILGNKVFRRLELLEKPVIAAVNGFALGGGCEIAMSCDIRIASSNARFGQPEVGLGITPGFGGTQRLSRLVGMGMAKQLIFTAQNIKADEALRIGLVNKVVEPSELMNTAKEIANKIVSNAPVAVKLSKQAINRGMQCDIDTALAFESEAFGECFSTEDQKDAMTAFIEKRKIEGFKNR
Crt activity ([1]; yeast strain BY4741 (pNY11: pRS426-GPM1-crt-GPM1t)): 85 U/mg | Crt enzyme activity ([1]; yeast strain DPD5200 (BY4743/pNY103), standard conditions): 23.0 U/mg

B2: Ter: butyl-CoA dehydrogenase (ter) encoded by the codon optimized tery gene, SEQ ID NO:187 (protein)
chain: MLVKAKFVKGFIRDVHPYGCRREVLNQIDYCKKAIGFRGPKKVLIVGASSGFGLATRISVAFGGPEAHTIGVSYETGATDRRIGTAGWYNNIFFKEFAKKKGLVAKNFIEDAFSNETKDKVIKYIKDEFGKIDLFVYSLAAPRRKDYKTGNVYTSRIKTILGDFEGPTIDVERDEITLKKVSSASIEEIEETRKVMGGEDWQEWCEELLYEDCFSDKATTIAYSYIGSPRTYKIYREGTIGIAKKDLEDKAKLINEKLNRVIGGRAFVSVNKALVTKASAYIPTFPLYAAILYKVMKEKNIHENCIMQIERMFSEKIYSNEKIQFDDKGRLRMDDLELRKDVQDEVDRIWSNITPENFKELSDYKGYKKEFMNLNGFDLDGVDYSKDLDIELLRKLEP
modifications: Modified Ter protein
Ter activity ([2]; yeast BY4741 transformant of pNY9): 0.26 U/mg | Ter activity ([2]; yeast BY4741 transformed with pNY13, SD-His medium): 0.19 U/mg

B3: EgTER(opt): butyryl-CoA dehydrogenase (TER) from Euglena gracilis, codon optimized gene lacking the normal mitochondrial presequence (protein, UniProt Q5EU90 69-539, looked up)
Trans-2-enoyl-CoA reductase: VPQMAEGFSGEATSAWAAAGPQWAAPLVAAASSALALWWWAARRSVRRPLAALAELPTAVTHLAPPMAMFTTTAKVIQPKIRGFICTTTHPIGCEKRVQEEIAYARAHPPTSPGPKRVLVIGCSTGYGLSTRITAAFGYQAATLGVFLAGPPTKGRPAAAGWYNTVAFEKAALEAGLYARSLNGDAFDSTTKARTVEAIKRDLGTVDLVVYSIAAPKRTDPATGVLHKACLKPIGATYTNRTVNTDKAEVTDVSIEPASPEEIADTVKVMGGEDWELWIQALSEAGVLAEGAKTVAYSYIGPEMTWPVYWSGTIGEAKKDVEKAAKRITQQYGCPAYPVVAKALVTQASSAIPVVPLYICLLYRVMKEKGTHEGCIEQMVRLLTTKLYPENGAPIVDEAGRVRVDDWEMAEDVQQAVKDLWSQVSTANLKDISDFAGYQTEFLRLFGFGIDGVDYDQPVDVEADLPSAAQQ
specific activity (trans-2-enoyl-CoA reductase) ([2]; induced BL21 (DE3)/pET23+::EgTER(opt) culture): 1.9 µmol/mg/min | butyryl-CoA dehydrogenase activity ([2]; pTrc99a-EgTER(opt) compared with CaTER constructs, in words): Higher

B4: Ald: butyraldehyde dehydrogenase encoded by ald from C. beijerinckii ATCC 35702, SEQ ID NO:12; in yeast from codon optimized aldy, SEQ ID NO:189 (protein, listed as Clostridium beijerinckii)
chain: MNKDTLIPTTKDLKVKTNGENINLKNYKDNSSCFGVFENVENAISSAVHAQKILSLHYTKEQREKIITEIRKAALQNKEVLATMILEETHMGRYEDKILKHELVAKYTPGTEDLTTTAWSGDNGLTVVEMSPYGVIGAITPSTNPTETVICNSIGMIAAGNAVVFNGHPCAKKCVAFAVEMINKAIISCGGPENLVTTIKNPTMESLDAIIKHPSIKLLCGTGGPGMVKTLLNSGKKAIGAGAGNPPVIVDDTADIEKAGRSIIEGCSFDNNLPCIAEKEVFVFENVADDLISNMLKNNAVIINEDQVSKLIDLVLQKNNETQEYFINKKWVGKDAKLFLDEIDVESPSNVKCIICEVNANHPFVMTELMMPILPIVRVKDIDEAIKYAKIAEQNRKHSAYIYSKNIDNLNRFEREIDTTIFVKNAKSFAGVGYEAEGFTTFTIAGSTGEGITSARNFTRQRRCVLAG
Ald specific activity towards butyryl-CoA [3]: approximately 0.07 U/mg

B5: ERG10: product of the Saccharomyces cerevisiae ERG10 gene, a functional ortholog of the thlA gene (protein, UniProt P41338 2-398, looked up)
Acetyl-CoA acetyltransferase: SQNVYIVSTARTPIGSFQGSLSSKTAVELGAVALKGALAKVPELDASKDFDEIIFGNVLSANLGQAPARQVALAAGLSNHIVASTVNKVCASAMKAIILGAQSIKCGNADVVVAGGCESMTNAPYYMPAARAGAKFGQTVLVDGVERDGLNDAYDGLAMGVHAEKCARDWDITREQQDNFAIESYQKSQKSQKEGKFDNEIVPVTIKGFRGKPDTQVTKDEEPARLHVEKLRSARTVFQKENGTVTAANASPINDGAAAVILVSEKVLKEKNLKPLAIIKGWGEAAHQPADFTWAPSLAVPKALKHAGIEDINSVDYFEFNEAFSVVGLVNTKILKLDPSKVNVYGGAVALGHPLGCSGARVVVTLLSILQQEGGKIGVAAICNGGGGASSIVIEKI
thiolase activity [4]: no thiolase activity
